Test results from article PMC6724690 (Molecular Biology of the Cell, 2019).

Legend:
[1] = biological target: porcine αβ-tubulin, as dynamic microtubules polymerizing from soluble αβ-tubulin (porcine) (UniProt P02550); assay: TIRF microscopy of dynamic microtubules
[2] = biological target: the molecule itself; assay: single-molecule fluorescence intensity distribution
[3] = biological target: porcine αβ-tubulin, as dynamic microtubules polymerizing from soluble αβ-tubulin (porcine) (UniProt P02550); assay: single-molecule TIRF microscopy of dynamic microtubules

average MT plus-end tracking ratio [1] | average tracking time at MT plus ends [1] [s] | mean dwell time at polymerizing MT plus ends [3] [s] | Binder | stoichiometry N [2]
0.89 | 125 |  | Alp14 (residues 1–690) C-terminally fused to mNeonGreen (domain or fragment) MSQDQEEDYSKLPLESRIVHKVWKVRLSAYEECSKSFSLSADGSDNCFELWNNQSELWKSVLTDSNVAAQEAGTAAFVAYCRFSDPSHLLKAREISVLSISEKCLTSPRAGTRENALEALMLLVEADSAAPVIESIIPSLSARSPKVIASNVAAIASLVEQFGAKVIPSKMIIPHISNLFGHADKNVRKEASRLTVNIYRWTGDPLKDLLFKDLRPVQTKELESLFAELPTEPPKQTRFLKSQQPTSEPNVETQVEEQPALENEESEPEPSDDQFDLVEEVDVLPNVDPNLETLMASSKWKDRKEALDKLLPVLSQPKIKDNDFFNLVAILTKSVSKDANIMVVINAAHCIQAMAKGLRSNFSKYASTSINALLERSKEKKANVIESLSSAMDAVLATSSLDDLAELIASFAGNKNPQIKSSCFSLFSRSFSNMTSLPSKFTVDTCAKACVPGVSDTFEPVRSAAAEALGVLMKLVGERAINQYLSPLDDIRKSKIRSFYETATVKAKAPTKKSKVKPSKQEESKVVVPSNAKAVKKSVVPSSPVVPSPRKATNKSLSMDVSKGNAFENGPLLPRPTTRPVSRGLSRGTSSSLQQKVKASTPLNSGALNETVQNLKNMELDDPAPQPAKHSRVDRYEHPKVLEDNDSTISSLESLKRENEELREQLKVEHEENISMQKQLSELKGELNTL | 
 |  | 129 | C-terminal-SNAPf-tagged Alp14 (residues 1–690), labelled with SNAP-surface Atto-488 (domain or fragment, S. pombe, UniProt O94534 1-690, looked up, SNAP-surface Atto-488 fluorophore covalently attached to the SNAP tag) MSQDQEEDYSKLPLESRIVHKVWKVRLSAYEECSKSFSLSADGSDNCFELWNNQSELWKSVLTDSNVAAQEAGTAAFVAYCRFSDPSHLLKAREISVLSISEKCLTSPRAGTRENALEALMLLVEADSAAPVIESIIPSLSARSPKVIASNVAAIASLVEQFGAKVIPSKMIIPHISNLFGHADKNVRKEASRLTVNIYRWTGDPLKDLLFKDLRPVQTKELESLFAELPTEPPKQTRFLKSQQPTSEPNVETQVEEQPALENEESEPEPSDDQFDLVEEVDVLPNVDPNLETLMASSKWKDRKEALDKLLPVLSQPKIKDNDFFNLVAILTKSVSKDANIMVVINAAHCIQAMAKGLRSNFSKYASTSINALLERSKEKKANVIESLSSAMDAVLATSSLDDLAELIASFAGNKNPQIKSSCFSLFSRSFSNMTSLPSKFTVDTCAKACVPGVSDTFEPVRSAAAEALGVLMKLVGERAINQYLSPLDDIRKSKIRSFYETATVKAKAPTKKSKVKPSKQEESKVVVPSNAKAVKKSVVPSSPVVPSPRKATNKSLSMDVSKGNAFENGPLLPRPTTRPVSRGLSRGTSSSLQQKVKASTPLNSGALNETVQNLKNMELDDPAPQPAKHSRVDRYEHPKVLEDNDSTISSLESLKRENEELREQLKVEHEENISMQKQLSELKGELNTL | 2
